Measurements: PMC10397247
Values belong to the binder of their own block, whether it stands above or below them.

Assays:
[1] = target: T1, P5SH; test: two-hybrid library CCNG1;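 further: natural log of median RNA to DNA barcode read ratio; higher means stronger binding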
T1 chain: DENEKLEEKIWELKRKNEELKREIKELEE

[2] = target: T2, P6SH; test: two-hybrid library CCNG1;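 further: natural log of median RNA to DNA barcode read ratio; higher means stronger binding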
T2 chain: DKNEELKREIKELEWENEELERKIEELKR

[3] = target: T3, P7SH; test: two-hybrid library CCNG1;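 further: natural log of median RNA to DNA barcode read ratio; higher means stronger binding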
T3 chain: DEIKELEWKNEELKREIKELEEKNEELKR

[4] = target: T4, P8SH; test: two-hybrid library CCNG1;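 further: natural log of median RNA to DNA barcode read ratio; higher means stronger binding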
T4 chain: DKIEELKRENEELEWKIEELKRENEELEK

[5] = target: T2, P6SH; test: two-hybrid library CCmax; conditions: mean of both orientations
[6] = target: T5, Core_NNNN-es_KKKK; test: two-hybrid library CCmax; conditions: mean of both orientations
T5 chain: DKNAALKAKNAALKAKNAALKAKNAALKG

[7] = target: T6, Core_NIII-es_KKEK; test: two-hybrid library CCmax; conditions: mean of both orientations
T6 chain: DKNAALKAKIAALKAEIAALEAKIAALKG

interaction score [1]: -0.706 | interaction score [2]: 1.84 | interaction score [3]: -0.619 | interaction score [4]: 0.809 | interaction score [5]: 0.801
Binder: DENEKLEEKIWELKRKNEELKREIKELEE [P5SH]

interaction score [6]: 1.53
Binder: DENAALEAENAALEAENAALEAENAALEG [Core_NNNN-es_EEEE]

interaction score [7]: 2.17
Binder: DENAALEAEIAALEAKIAALKAEIAALEG [Core_NIII-es_EEKE]
